Among the data in patent US20150024402A1 are Kd values, retold here.

For assay [1], the target named is Human Serum Albumin (HSA) (human) (UniProt P02768). Description: LSPR absorbance shift of HSA-conjugated gold nanorods in suspension, dose response at equilibrium; 18.75 ug/mL HSA (partial coverage), BSA block, 30 min incubation.
Assay [2] has the same target. The experiment in a line: LSPR absorbance shift of HSA-conjugated gold nanorods; carboxyl groups blocked with ovalbumin at 200 ug/mL, 60 min incubation.
The target is the same in assay [3]. Description: LSPR absorbance shift of HSA-conjugated gold nanorods; carboxyl groups blocked with mPEG-NH2 at 16700 ug/mL, 60 min incubation.
The target is the same in assay [4]. Description: LSPR absorbance shift of HSA-conjugated gold nanorods; 37.5 ug/mL HSA (partial coverage), BSA block, 60 min incubation.
The target is the same in assay [5]. Description: LSPR absorbance shift of HSA-conjugated gold nanorods; 18.75 ug/mL HSA (partial coverage), BSA block, 60 min incubation.
For assay [6] the target is unchanged. The experiment in a line: LSPR absorbance shift of HSA-conjugated gold nanorods; carboxyl groups blocked with BSA at 200 ug/mL, 60 min incubation.
For assay [7] the target is unchanged. Description: LSPR absorbance shift of HSA-conjugated gold nanorods in suspension, dose response at equilibrium; 600 ug/mL HSA (full coverage), BSA block, 30 min incubation; filing says the value deviates through ligand depletion.
Assay [8] shares this target. Description: LSPR absorbance shift of HSA-conjugated gold nanorods; 600 ug/mL HSA (full coverage), BSA block, 60 min incubation; filing says the value deviates through ligand depletion.

UniProt P02768, sequence (P02768 25-609 limits assumed): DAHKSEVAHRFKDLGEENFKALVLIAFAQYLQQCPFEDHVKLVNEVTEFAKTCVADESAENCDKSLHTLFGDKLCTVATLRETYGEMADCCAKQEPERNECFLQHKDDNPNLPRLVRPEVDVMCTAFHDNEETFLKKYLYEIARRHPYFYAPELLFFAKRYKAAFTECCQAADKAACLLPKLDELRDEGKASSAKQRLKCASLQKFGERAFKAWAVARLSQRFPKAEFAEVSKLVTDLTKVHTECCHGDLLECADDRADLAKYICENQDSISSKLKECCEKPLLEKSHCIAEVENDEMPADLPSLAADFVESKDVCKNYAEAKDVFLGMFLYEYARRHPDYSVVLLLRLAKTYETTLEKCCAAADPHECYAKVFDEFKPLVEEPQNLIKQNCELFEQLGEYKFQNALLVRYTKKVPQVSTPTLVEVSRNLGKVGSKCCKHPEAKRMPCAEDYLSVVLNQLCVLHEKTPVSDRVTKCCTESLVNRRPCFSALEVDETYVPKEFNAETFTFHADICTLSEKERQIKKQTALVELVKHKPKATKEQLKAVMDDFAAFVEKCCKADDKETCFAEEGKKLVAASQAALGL

In the case of “Anti-Human Serum Albumin monoclonal antibody (ab18081, available from Abcam)”, the Kd came out at 6.41 nM in assay [1]; 5.22 nM in assay [2]; 2.5 nM in assay [3]; 5.5 nM in assay [4]; 3.8 nM in assay [5]; 8.44 nM in assay [6]. In addition, the Kd stood at 99.4 nM in assay [7] and 252 nM in assay [8].
